Assay results from the nanobody polyreactivity screen of Harvey et al. (2022).

Experiment: yeast display, Sf9 membrane polyspecificity reagent, FACS + sequencing; frameworks hold sequencing errors
How it was run: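 Genes from sorted yeast were amplified by colony PCR, read by MiSeq 2 × 250 sequencing and filtered on CDR length. These cells carried a synthetic nanobody library in Saccharomyces cerevisiae BJ5465 and were sorted by FACS into low and high (top ~1%) gates on anti-HA and streptavidin fluorescence. Polyreactivity is labelled according to the gate of origin.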
In the case of “QVQRVESGGGLDQARGSLRLSCAASGITLDRYDMGWYRQAPGKERELVAAISRSGVRTYYADSVKGRFTISRDNAKNTVYLQRNSLKPEDPAVYYCNKGYARRYASGYDYWGQGTQVTVSS”, the “polyreactivity (PSR sort gate)” value is reported as “high polyreactivity”. For “QVQRVESGGGLFQAGGRLRLSCAASGLIFPWYARGWYRQAPGKERELVAAISVRGGSTYYADSVKGRFTISRDNAKNTVYLQMNSLKPEDTAVYYCAASKRRASYRYYYWGQGTQVTVSS”, the “polyreactivity (PSR sort gate)” value was “high polyreactivity”. With “QVQRVESGGGLFQAGGRLRLSCAATGSIFTPNAMGWYRQAPGKERELVAAISSSSDRTYYADSVKGRFTISRDKAKNTVYLQMNSLKPEDTAVYYCAAYAQKRYYWGQGTQVTVSS” the “polyreactivity (PSR sort gate)” value was “high polyreactivity”. With “QVQRVESGGGLGLAGGSLRLSCAASGITFVLYALGGYRQAPGKERALVASITWDATDTYYADSVKGRFTISRDNAKNTEYIPMNSLKPDDTAVSYCNAAYYNYWWLEYDYWGQGTQVTVSS” the “polyreactivity (PSR sort gate)” value was “high polyreactivity”. With “QVQRVESGGGLVQAGCSLRLSCAASGLIFTRYDMGWNRPAPGKERELVAAISGDGGSTYYAESVKGRFTISRDNAKNTVYLQMNSLKPEDTAVYYCAADSARTPWDDYWGQGTQVTVSS” the “polyreactivity (PSR sort gate)” value was “high polyreactivity”. With “QVQRVESGGGLVQAGGRLRLSCAASGFIFSYNAMGWYRQAPGKERELVAAISWSGVSTYYADSVMGRFTISRDNAKNTVYLQMNSLKPEDTAVYYCSAVRLRYATPVQFNPYIFGYWGQGTQVTVSS” the “polyreactivity (PSR sort gate)” value was “high polyreactivity”. With “QVQRVESGGGLVQAGGSHRLSCAASGRIFSLNAMGWYRQAPGKERELVAAITTTGGTTYYADSVKGRFTISRDKAKNTVYLQMNSLKPEDTAVYYCAADYAPYNYLAYYFSGWLEYWGQGTQVTVSS” the “polyreactivity (PSR sort gate)” value was “low polyreactivity”. For “QVQRVESGGGLVQAGGSLRLRCAASGFTLGHYAMGWYRQAPGTERELVAVITSGSSTNYADSVKGRFTISRDNAKNTVYLQMNSLKPEDTAVIYCAAEHPYFIWLYYYWGQGTQVTVSS”, the “polyreactivity (PSR sort gate)” value was “low polyreactivity”. In the case of “QVQRVESGGGLVQAGGSLRLSCAACGSILPQYTMVWYRQAPGKERELVAAISKRGDRTYYADSVKGRFTISRDNAKNTVYLQMNSLKPEDTAVYYCAALGTGTGARSRYSVRFDYWGQGTQVTVSS”, the “polyreactivity (PSR sort gate)” value is reported as “high polyreactivity”. With “QVQRVESGGGLVQAGGSLRLSCAASGLIFGGYAMGWYRQAPGKERELVAAITSGGSTKYADSVKGRFTISRDNAKNTVYLQMNSLKPEDTAVYYCAASGWRNWWSARNYYWGQGTQVTVSS” the “polyreactivity (PSR sort gate)” value was “low polyreactivity”. For “QVQRVESGGGLVQAGGSLRLSCAASGLTFRRYGMGWYRQAPGKEREWVASISSRGGNTYYADSVKGRLTISRDKAKNTVYLQMNSRKPEETAVYYCAARHVLYGYYLYDYWGQGTQVTVSS”, the “polyreactivity (PSR sort gate)” value was “high polyreactivity”. In the case of “QVQRVESGGGLVQAGGSLRLSCAASGNTFTVNAMGWYRQAPGKERELVAAINYSGGSTYYADSVKGRFTISRDNAKNTVYLQKNSLKPEDTAVYYCAASPDELLYEMYYWGQGTQVTVSS”, the “polyreactivity (PSR sort gate)” value is reported as “low polyreactivity”. In the case of “QVQRVESGGGLVQAGGSLRLSCAASGRIFGKYAMGWYRQAPGKERELVAAIDGSGSTNYADSVKGRFTISRDNAKNTVYLLMNSLKPEDTAVYYCATDHAQKFRYRSPREYWGQGTQVTVSS”, the “polyreactivity (PSR sort gate)” value is reported as “low polyreactivity”. For “QVQRVESGGGLVQAGGSLRLSCAASGRIFQVYAMGWSRPAPGKERELVAAITWSGGSSYADSVKGRFTISRDNAKNTVFLQMNSLKPEDTAVYYCAAPFYYYGVRFDYRGQGTQVTVSS”, the “polyreactivity (PSR sort gate)” value was “high polyreactivity”. With “QVQRVESGGGLVQAGGSLRLSCAASGRIFSANAMGWYRQAPGKERELVATISTGGGRTYYADSVKGRFTISRDNAKNTVYLQMNSLKPEDTAVYYCNATRNYARVRYYYWGQGTQVTVSS” the “polyreactivity (PSR sort gate)” value was “high polyreactivity”. For “QVQRVESGGGLVQAGGSLRLSCAASGRIFSLNAMGWYRQAPGKEREFVAAISTSSGTTYYADSVKGRFTISRDNAKNTVYLQMNSLKPEDTAVYYCAAKRPSRYYPYRWGFDYWGQGTQVTVSS”, the “polyreactivity (PSR sort gate)” value was “high polyreactivity”. In the case of “QVQRVESGGGLVQAGGSLRLSCAASGRTFPWNVMGWYRQAPGKERELVAAISWSSGRTYYADSVKGRFTISRDNAKNTVYLQMNSLKPEDTAVYYCAAVYKVHSGLYEYWGQGTQVTVSS”, the “polyreactivity (PSR sort gate)” value is reported as “high polyreactivity”. In the case of “QVQRVESGGGLVQAGGSLRLSCAASGRTFWRNAMGWYRQAPGKERELVARISWSGGSTYYADSVKGRFTISRDNAKNTVYLQMNSLKPEDTAVYYCAKYYPGRSAFSDGNYWVQGTQVTVSS”, the “polyreactivity (PSR sort gate)” value is reported as “low polyreactivity”. For “QVQRVESGGGLVQAGGSLRLSCAASGRTVGYYAMGWYRQAPGKERELLAAITRTGGSTHYADSVKGRFTISRANAKNTVYIQMNSLKPEDTAVYYCARDYRYTIPYDYWGQGTQVTVSS”, the “polyreactivity (PSR sort gate)” value was “low polyreactivity”. With “QVQRVESGGGLVQAGGSLRLSCAASGSIFPRYAMGWYRQAPGKEREMVATISSGGSTYYADSVKGRFTISRDNAKNTVYLQMNSLKPEHTAVYYCAARKRPYTVINGMDYWGQGTQVTVSS” the “polyreactivity (PSR sort gate)” value was “low polyreactivity”. In the case of “QVQRVESGGGLVQAGGSLRLSCAASGSIFSVYAMGWYRQAPGKERELVAAITSSGGSTYYADSVKGRFTISRDNAKNTVNFQMKSLKPEDTAVYYCAADKYLRRRSWYRYGYWGQGTQVTVSS”, the “polyreactivity (PSR sort gate)” value is reported as “high polyreactivity”. In the case of “QVQRVESGGGLVQAGGSLRLSCAASGSIFYGNAMGWYRQAPGKERELVAAISWSGGSTYYADSVKGRFTISRDNAKNTVYLQMNSLKPEDTAVYYCATVADEPRAYSGYEESDYWGQGTQVTVSS”, the “polyreactivity (PSR sort gate)” value is reported as “low polyreactivity”. In the case of “QVQRVESGGGLVQAGGSLRLSCAASGSIFYVYVMGWYRLAPGKERELVAGISYRGGSTYYADSVKGRFTISRDNAKNTVYLQMNSLKPEDTAVYYCNAGVWTYWHIEMDYWGQGTQVTVSS”, the “polyreactivity (PSR sort gate)” value is reported as “low polyreactivity”. For “QVQRVESGGGLVQAGGSLRLSCAASGSTFKKYVMGWYRPAPGKERELVAAISGRGGSTYYADSVKGRFTISRDNAKNTVYLQMNSLKPEDTAVYYCNARKQTARFDSWGQGTQVTVSS”, the “polyreactivity (PSR sort gate)” value was “high polyreactivity”. In the case of “QVQRVESGGGLVQAGGSLRLSCAASGSTFSSYAMGWYRQAPWKERELVAAISRSGGSTHYADSLKGRFTISRDNAKNTVYLQMNSLKPEDSAVYYCAADTGRYLDSNYWGQGTQVTVSS”, the “polyreactivity (PSR sort gate)” value is reported as “high polyreactivity”. For “QVQRVESGGGLVQAGGSLRLSCAASGSTFVGYAMGWYRQAPGKERELVAAINDSGGSTYYADSVKGRFTISRDNAKNTVYLQMNSLKPEDTAVYYCAADSSGTSWYTFDYWGQRTQVTVSS”, the “polyreactivity (PSR sort gate)” value was “low polyreactivity”. For “QVQRVESGGGLVQAGGSLRLSCAASGYTFQWYDMGWYRQAPGKERELVASISWRGGSTYYADSVKGRFTISRDNAKNTVYFQMNSLKPEDTAVYYCAASLLPDYQYDYWGQGTQVTVSS”, the “polyreactivity (PSR sort gate)” value was “low polyreactivity”. In the case of “QVQRVESGGGLVQAGGSLRLSCAASRRIFKLYAMGWYIQAPGKERELVAAINRRGGSTSYADSVKVRFTISRDYAKNTVYLQMNSLKPEDTAVYYCAASYTGRTVVQGYEYWGQGTQVTVSS”, the “polyreactivity (PSR sort gate)” value is reported as “high polyreactivity”. For “QVQRVESGGGLVQAGGSLRLSGAASGFTFHSYAMGWFRQPPGKERELVAAISTGGTRTYYADSVKGRFTISRDNAKNTVYLQMNSLKPEDTAVYYCAADLSRRVRIYSKYDSWGQGTQVTVSS”, the “polyreactivity (PSR sort gate)” value was “high polyreactivity”. With “QVQRVESGGGLVQAGGSLRLSSAGSGFTYYRNAMGWYRQAPGKERELVAAISFSGGSTYYADSVKGRFTISRDNAKNTVYLQMNSLKPEDTAVYYCAREDYSHSFLTYDYWGQGTQLTVSS” the “polyreactivity (PSR sort gate)” value was “low polyreactivity”. With “QVQRVESGGGLVQAGGSLRVSCAASGSTFYVYGMGWYRQAPGKERELVAAISWSGGDTYYADSVKGRCTISRDNAKNTVYLQMNRLKPEDTAVYYCAAVYNYPVVGEYDYWGQGTQVTVSA” the “polyreactivity (PSR sort gate)” value was “high polyreactivity”. In the case of “QVQRVESGGGLVQAGRSLRLSCAASGTIFGPYAMGWYRQAPGKERELVAAITIGRDNTYYADSVKGRFTISRDNAKNTVYLQINSLKPEDTAVYYCAAKYYGGKPHYYEYYYWGQGTQVTVSS”, the “polyreactivity (PSR sort gate)” value is reported as “low polyreactivity”. In the case of “QVQRVESGGGLVQAGRSLRLSCAATGITFWVYAMGWYRQAPGKERELVAAISRRGGSTSYADSVKGRFTISRDNAKNTVYLQMNSLKPEDTAVYYCAATTYTHPYGYWGQGTQVTVSS”, the “polyreactivity (PSR sort gate)” value is reported as “high polyreactivity”. With “QVQRVESGGGLVQEGGSLRLSCAASGITFAGYAMGWYRQAHGKERELVAAISTRGGSTTYADSVKGRFTISLDNAKNTVYLQMNRLKPEDTAVYYCAADSYYRRYFGWYEYWGQGTQVTVSS” the “polyreactivity (PSR sort gate)” value was “high polyreactivity”. With “QVQRVESGGGLVQSGGSLRLSCAASGRIFYLYARGWNSQAPGKERELVAAITWSGGSTTYADSVKGRFTISRDNAKNTVYLQMNSLKPEDTAVYYCNADGWSFPSFSPMDYWGQGTQVTVSS” the “polyreactivity (PSR sort gate)” value was “low polyreactivity”. In the case of “QVQRVESGGRLVQAGGSLRLSCAPSGFTFQDYAMGWSRQAPGKERELVAAISRNGGSTYYADSVKGRFTISRDNAKNTVYLQMNSLKPEDTAVYYCNADSHHRRGSRDYCGQGTQVTVSS”, the “polyreactivity (PSR sort gate)” value is reported as “low polyreactivity”. In the case of “QVQRVESGGVLVQAGGSLRLSCAASGITFYVYAMGWYRQAPGKERELVASITRSVGITSYADSVKGRFTISRDNSKNTVYLQMNSLKQEDSAVYYCAAERSNLHYNIQGVGYWGQGTQVTVSS”, the “polyreactivity (PSR sort gate)” value is reported as “low polyreactivity”. In the case of “QVQRVESRGGLVQAGGSLRLSCAASGSTFHRYVKGWSRTATGKERELVSVINSTGASTYYADSVKWRYTLSRDNAKNSVYLQMNSLKPEDTAVYYCARVTRRGPGYTTLYSRYDYWGQGTQVTVSS”, the “polyreactivity (PSR sort gate)” value is reported as “low polyreactivity”. In the case of “QVQRVESVGGLVQAGGSLRFSCAASGSTFTANAMGWYRQAPGKEREFVAAITQSGGDTYYADSVKGRFTISRDNAKNTVYLQMNSLKPEDSEVYYCAAESAYFVALTHFYTVEFYYWGQGTQGTVSS”, the “polyreactivity (PSR sort gate)” value is reported as “low polyreactivity”. In the case of “QVQRVETGRGIVQAGGILRLSCAASGRTFHLYAMGWYRQQPGKERELVADIDGDGGSTYYSDSVKGRFTISRDNAKNTVYLQMNSLKPEDTAVYDCAASRFDYWGQGTQVTVSS”, the “polyreactivity (PSR sort gate)” value is reported as “low polyreactivity”.
